Measurements: US20120190612A1, “METHODS OF TREATMENT” (CRC FOR ASTHMA AND AIRWAYS LTD., priority 2009, published 2012)

Legend:
fibroblasts (3567) = experiment: MTT cell viability assay, fibroblasts; assay type: cell-based; details: increasing concentrations, 72 hrs
epithelial cells (A549) = experiment: MTT cell viability assay, epithelial cells; assay type: cell-based; details: increasing concentrations, 72 hrs
HMVEC-LLy cells = experiment: Migration towards a VEGF-D gradient (FluoroBlok transwell); assay type: cell-based, human; details: 24 hrs, n=1; VEGFD alone 42.000 RFU
Procedure: FluoroBlok BioCoat 24-well inserts (BD Bioscience) were seeded with 4×10^4 HMVEC-LLy cells in 750 μL DMEM with 0.1% BSA, 1% antibiotics and 25 mM HEPES and incubated for 1 hr. The bottom well was filled with 500 μL medium (as described above) with or without 10 ng/mL VEGF-D (R&D Systems) as well as various concentrations of lamstatin, tumstatin, CP17 or vehicle. Additionally, top wells were loaded with inhibitors to match the bottom well concentration. According to manufacturer's instructions cells were allowed to migrate for 24 hrs before bottom media was removed. Thereafter the underside of the transwell with the migrated cells was washed twice with HANKS buffer and placed in a 4 μg/mL calcein (HANKS) solution for 90 min at 37° C. Signal was read with a bottom read fluorescence microplate reader at 485/515 nm (excitation/emission).

integrin β3 = target: T1, integrin β3 (Homo sapiens, UniProt P05106); experiment: Integrin binding of HMVEC-LLy cells on antibody-coated plates; assay type: cell-based; details: lamstatin 10 μg/ml, CP17 5 μM, 1 h
T1 construct: endogenous in cells; host or cells: HMVEC-LLy (human primary lymphatic endothelial cells)
T1 sequence (P05106 27-788): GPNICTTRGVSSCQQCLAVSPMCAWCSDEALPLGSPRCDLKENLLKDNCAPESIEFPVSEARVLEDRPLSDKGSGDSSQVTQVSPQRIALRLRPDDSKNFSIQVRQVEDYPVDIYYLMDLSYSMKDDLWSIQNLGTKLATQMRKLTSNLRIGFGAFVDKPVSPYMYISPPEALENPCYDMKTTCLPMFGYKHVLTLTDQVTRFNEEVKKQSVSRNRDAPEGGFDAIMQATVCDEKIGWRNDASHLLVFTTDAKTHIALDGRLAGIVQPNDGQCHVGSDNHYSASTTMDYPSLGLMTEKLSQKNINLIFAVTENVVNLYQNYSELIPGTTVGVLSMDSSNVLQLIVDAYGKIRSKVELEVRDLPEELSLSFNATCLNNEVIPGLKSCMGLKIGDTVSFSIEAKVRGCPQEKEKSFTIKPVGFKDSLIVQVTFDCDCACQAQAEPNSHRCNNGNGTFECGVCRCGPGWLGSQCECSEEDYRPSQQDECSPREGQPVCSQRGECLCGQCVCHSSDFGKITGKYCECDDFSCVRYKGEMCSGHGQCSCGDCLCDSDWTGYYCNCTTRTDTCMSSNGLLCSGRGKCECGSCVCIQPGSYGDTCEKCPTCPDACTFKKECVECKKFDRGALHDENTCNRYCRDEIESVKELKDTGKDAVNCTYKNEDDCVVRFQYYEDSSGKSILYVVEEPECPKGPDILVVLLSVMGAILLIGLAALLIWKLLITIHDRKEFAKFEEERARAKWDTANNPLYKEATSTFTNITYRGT
T1 sequence (P06756 31-889 limits assumed, further chain): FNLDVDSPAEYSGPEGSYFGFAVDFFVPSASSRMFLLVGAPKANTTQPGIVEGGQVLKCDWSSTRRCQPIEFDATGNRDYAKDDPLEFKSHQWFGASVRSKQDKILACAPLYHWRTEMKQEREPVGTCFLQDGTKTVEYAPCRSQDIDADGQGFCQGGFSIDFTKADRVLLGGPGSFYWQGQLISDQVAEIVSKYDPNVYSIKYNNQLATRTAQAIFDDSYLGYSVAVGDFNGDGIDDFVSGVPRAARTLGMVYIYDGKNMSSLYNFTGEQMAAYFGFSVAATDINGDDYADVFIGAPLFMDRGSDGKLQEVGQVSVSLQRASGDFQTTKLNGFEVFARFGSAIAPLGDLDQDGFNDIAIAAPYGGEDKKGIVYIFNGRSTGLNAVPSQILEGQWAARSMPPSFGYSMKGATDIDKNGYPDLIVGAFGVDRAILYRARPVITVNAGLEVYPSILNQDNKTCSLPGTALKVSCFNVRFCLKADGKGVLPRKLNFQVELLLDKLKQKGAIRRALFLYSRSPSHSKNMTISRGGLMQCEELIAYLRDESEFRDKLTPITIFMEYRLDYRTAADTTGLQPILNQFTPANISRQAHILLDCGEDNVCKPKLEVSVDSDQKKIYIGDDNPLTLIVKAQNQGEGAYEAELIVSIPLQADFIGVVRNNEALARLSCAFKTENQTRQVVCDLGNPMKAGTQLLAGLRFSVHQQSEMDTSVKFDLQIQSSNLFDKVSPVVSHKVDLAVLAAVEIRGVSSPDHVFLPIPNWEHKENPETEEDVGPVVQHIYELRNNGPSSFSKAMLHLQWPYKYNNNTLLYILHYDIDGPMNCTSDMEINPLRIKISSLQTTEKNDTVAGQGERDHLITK
T1 sequence (P06756 891-1048 limits assumed, further chain): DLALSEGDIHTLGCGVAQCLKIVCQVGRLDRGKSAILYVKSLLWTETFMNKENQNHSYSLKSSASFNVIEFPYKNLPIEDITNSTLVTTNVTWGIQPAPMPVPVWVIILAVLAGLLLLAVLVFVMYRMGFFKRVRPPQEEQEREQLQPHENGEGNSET
Procedure: Antibodies for integrin α5 (MAB1956Z; MAB1953Z), integrin β1 (MAB2253Z) and integrin β3 (MAB1957Z) (all Millipore, USA) were coated to 96 well tissue culture plates (Nunc, USA) at a concentration of 10 μg/mL overnight at 4° C. in sterile coating buffer (50 mM Na2CO3, 50 mM NaHCO3, pH 9.6). Plates then were blocked with sterile 1% BSA/PBS for 1 h at 37° C. and washed twice with EBM-2 MV (Lonza, Basel, Switzerland). MMVEC-LLy cells were carefully removed from culture flasks with non-enzymatic detachment solution (Trevigen, Md., USA) and washed twice with EBM-2 (Lonza, Basel, Switzerland). Volume was adjusted to a cell concentration of 50,000 cells/100 μL and divided into aliquots for treatment with recombinant lamstatin (10 μg/ml), CP17 (5 μM) or vehicle (1 nM EDTA, pH 3.5) only. Cells were then transferred to the antibody-coated plates and incubated for 1 h at 37° C. Wells were then washed with HANKS twice to remove unbound cells and fixed with 4% paraformaldehyde (in PBS) for 15 min at room temperature. Wells thereafter were photographed with an Olypmus CAMEDIA C-4000 camera mounted to an Olympus CK2 microscope. Pictures were divided into 25 segments and cells of 5 center-near quadrants were counted and averaged. […] Using a similar approach, the inventors observed no expression of integrin α4 on the surface of HMVEC-LLy cells (data not shown).

integrins α5 and β1 = target: T2, integrins α5 and β1 (Homo sapiens, UniProt P05556+P08648); experiment: Integrins mediating binding of lymphatic endothelial cells (data not shown); assay type: cell-based; details: HMVEC-LLy in vitro, different from HUVECs
T2 construct: endogenous in cells; host or cells: HMVEC-LLy (human primary lymphatic endothelial cells)

LAM nodule cells = experiment: MTT cell viability assay, LAM nodule cells; assay type: cell-based; details: intermediate layer, centre and outer nodule cells, 72 hrs
Procedure: To determine the function of lamstatin, human primary lymphatic endothelial cells (HMVEC-LLy cells) were exposed to various concentrations of lamstatin and an MTT assay was performed. As a comparison, commercially available tumstatin was used. Specifically, to assess cell viability 4×10^3 HMVEC-LLy cells were seeded per well in 100 μl complete EBM-2 media (with bullet kit, Lonza) and incubated for 2 hrs at 37° C., 5% CO2. After this period lamstatin, tumstatin and respective vehicles (1 nM EDTA, pH 3.0) were prepared in complete EBM-2 as serial dilutions in a separate plate and added. Cells were grown for 24 hrs before MTT (1 mg/mL in PBS) was added. After 6 h of further incubation cells were lysed overnight with 10% SDS/0.01 M HCl and measured the following day in a plate reader at 570 nm.
The inventors isolated lung cells from a LAM patient, which cells originated from the LAM nodules. These cells were termed according to their location within the nodule, as intermediate layer in the nodule, centre cells and outer nodule cells. These cells were then treated with lamstatin or tumstatin and cell viability measured after 72 hrs. The MTT viability assay was performed as described above in Example 1.

outer nodule cells (LAM) = experiment: Tube formation of LAM outer nodule cells; assay type: cell-based; details: 5 hrs
Procedure: To assess formation of tubular structures, 48 well plates were coated with 130 μL Matrigel® (BD Bioscience), which was solidified at 37° C. over 45 min. 2×10^4 HMVEC-LLy cells in complete EBM-2 (500 μL) were seeded per well and allowed to attach for 30 min, before lamstatin, tumstatin, CP17 or vehicle was added to the wells. Photos were taken with a Kodak Digital Camera every 2 hrs. Tube formation peaked at 24 hrs, at which time tubular structures were further analysed to determine length (in pixels) and number of tubes per high power field (HPF) area (px^2). The HPF was divided in nine regions of equal size and tubes per region were counted. Mean and SEM were calculated and plotted.
The inventors then analysed tube formation in LAM nodule cells and found only the outer nodule cells responded with pseudo-tube formation. Assay for tube formation was performed as described above in Example 2. Photos were taken at 2, 3, 4, 5 and 24 hrs after seeding. Lamstatin was added directly after seeding to inhibit prior tube formation. Tube formation peaked at 5 hrs and after 24 hrs no tubular structures were observed (both treated and untreated) (data not shown).

[1] = test system: lymphatic endothelial cells
Procedure: The MTT assay was performed as described above. […] To differentiate between antiproliferative and cytotoxic effects, cells were counted 72 hrs after treatment with various concentrations of lamstatin.

B1: lamstatin: NC1 domain of the α5 chain of collagen type IV; human amino acid sequence SEQ ID NO:1; recombinant (protein, listed as Homo sapiens)
chain: GFLITRHSQTTDAPQCPQGTLQVYEGFSLLYVQGNKRAHGQDLGTAGSCLRRFSTMPFMFCNINNVCNFASRNDYSYWLSTPEPMPMSMQPLKGQSIQPFISRCAVCEAPAVVIAVHSQTIQIPHCPQGWDSLWIGYSFMMHTSAGAEGSGQALASPGSCLEEFRSAPFIECHGRGTCNYYANSYSFWLATVDVSDMFSKPQSETLKAGDLRTRISRCQVCMKRT
- cell viability (MTT) (fibroblasts (3567)): only lymphatic endothelial cells responded
- cell viability (MTT) (epithelial cells (A549)): only lymphatic endothelial cells responded
- migration towards a VEGFD gradient (HMVEC-LLy cells): 10000 RFU
- cell binding in presence of monoclonal antibody against integrin β3 (integrin β3): no effect on binding
- predominant integrins that mediate the binding of lymphatic endothelial cells (integrins α5 and β1): integrins α5 and β1
- reduction of cell viability (MTT) (LAM nodule cells): effective in reducing cell viability of all nodule cell types at both high (e.g. 10 μg/mL) and low (1.25-2.5 μg/mL) concentrations
- tube length (outer nodule cells (LAM)): significantly inhibited
- tube number (tubes per square pixel) (outer nodule cells (LAM)): significantly inhibited
- viable cells (trypan blue exclusion) [1]: no cytotoxic effect
- cell count ([1]; 10 μg/mL, 72 hrs after treatment, data not shown): anti-proliferative effect was observed
